B1: PRT-86 (protein)
chain: MANQEIRYSEEDPKHVTSVWTKGVTPPTDFTQGEDVLHAPYIANQGWYDITKTFNGKDDLLCGAATAGNMLHWWFDQNKEEIENYLKKHPEKQKIMFGDQELLDVRKVINTKDSQTNSKLFNYFREKAFPNLSARRLGVMPDLVLDMFINGYYLNVTKTQTTDVNRTYQTKDKRGGIFDAVFTRGDQTKLLTNRHDFKEKTLNEISDLIKQELQEGKALGLSHTYANVRINHVINLWGADFDSNGNLEAIYVTDSDANASIGMKKYFVGKNSAGKVAISAKEIKDDNIGAQVLGLFTLSTGQDIWNQTN
B2: PRT-87 (protein)
chain: MANQEIRYSEVTPYHITSVWTKGVTPPEQFTQGEDVFHAPYIANQGWYDITKTFNGKDNLLCGAATAGNMLHWWFDQNKEEIERYLKKYPEKQKIMFGDQELLDVRKVINTKDSQTNSKLFEYFRDKAFPNLSARRLGVMPDLVLDMFINGYYLSVTKTQTTDVNRTYGNKDNRGGIFDAVFTRGDQSKLLTNRHDFKEKNLKEISQLIKQELQEGKALALSHTYANVRINHVINLWGADFDSEGNLKAIYVTDSDSNASIGMKKYFVGVNSSGKVAISAKEIEEDNIGAQVLGLFTLSTGQDIWEQTN
B3: PRT-88 (protein)
chain: MANQEIRYSEVTPYHVTSVWTKGVTPPAKFTQGEDVFHAPYVANQGWYDITKTFNGKDDLLCGAATAGNMLHWWFDQNKEKIEAYLKKHPEKQKIMFGDQELLDVRKVINTKGDQTNSELFNYFRDKAFPGLSARRLGVMPDLVLDMFINGYYLNVYKTQTTDVNRTYQEKDRRGGIFDAVFTRGDQSKLLTSRHDFKEKNLKEISDLIKKELTEGKALGLSHTYANVRINHVINLWGADFDSNGNLKAIYVTDSDSNASIGMKKYFVGVNSAGKVAISAKEIKEDNIGAQVLGLFTLSTGQDIWNQTN
B4: PRT-97 (protein)
chain: B3 chain with L137I, I304S
B5: PRT-95 (protein)
chain: B3 chain with V16I, E91D, G131N, L137I, Y157G, R173K, K211Q, K284E, I304S
B6: PRT-92 (protein)
chain: B3 chain with H15T, V16I, K29D, V108A, G113D, G131N, R173K, K211Q, N244E
B7: PRT-91 (protein)
chain: B3 chain with V11E, V16I, G113D, G131N, Y157G, R173K, K211Q, K284E
B8: PRT-96 (protein)
chain: B3 chain with H15T, K29D, E91D, V108A, L137I, N244E, I304S
B9: PRT-98 (protein)
chain: B3 chain with E91D, I304S
B10: PRT-93 (protein)
chain: B3 chain with E91D, G113D, L137I, I304S
B11: PRT-100 (protein)
chain: B3 chain with E91D, G131N, L137I, I304S
B12: PRT-90 (protein)
chain: B3 chain with V11E, G113D, N201T
B13: PRT-94 (protein)
chain: B3 chain with V11E, E91D, L137I, N201T, I304S
B14: PRT-101 (protein)
chain: B3 chain with E91D, L137I, R173K, I304S
B15: PRT-89 (protein)
chain: B3 chain with G113D
B16: PRT-99 (protein)
chain: B3 chain with E91D, L137I

Positions count from the first letter of the chain named.

For the data set, the target named is pooled human IgG (human IgG1,2,3 and 4).
On to B1, for which the Enzyme Activity Endpoint Assay: Fab′2 is 4 ng/µL, the Enzyme Activity Endpoint Assay: Fc was determined as 61 ng/µL, the Enzyme Activity Endpoint Assay: IgG is 45 ng/µL and the Enzyme Activity Endpoint Assay: scIgG stood at 53 ng/µL.
On the same counts, the results for B2 are 0 ng/µL, 52 ng/µL, 60 ng/µL and 50 ng/µL.
B3 showed an Enzyme Activity Endpoint Assay: Fab′2 of 48 ng/µL, an Enzyme Activity Endpoint Assay: Fc of 110 ng/µL, an Enzyme Activity Endpoint Assay: IgG of 25 ng/µL and an Enzyme Activity Endpoint Assay: scIgG of 0 ng/µL.
Regarding B4, the Enzyme Activity Endpoint Assay: Fab′2 is 524 ng/µL, the Enzyme Activity Endpoint Assay: Fc was 185 ng/µL, the Enzyme Activity Endpoint Assay: IgG is 0 ng/µL and the Enzyme Activity Endpoint Assay: scIgG came to 0 ng/µL.
Protein B5 yielded an Enzyme Activity Endpoint Assay: Fab′2 of 242 ng/µL, an Enzyme Activity Endpoint Assay: Fc of 118 ng/µL, an Enzyme Activity Endpoint Assay: IgG of 102 ng/µL and an Enzyme Activity Endpoint Assay: scIgG of 0 ng/µL.
For B6, in that order: 40 ng/µL, 104 ng/µL, 8 ng/µL and 6 ng/µL.
B7 registered an Enzyme Activity Endpoint Assay: Fab′2 of 40 ng/µL, an Enzyme Activity Endpoint Assay: Fc of 102 ng/µL, an Enzyme Activity Endpoint Assay: IgG of 16 ng/µL and an Enzyme Activity Endpoint Assay: scIgG of 9 ng/µL.
In turn, B8 gave an Enzyme Activity Endpoint Assay: Fab′2 of 482 ng/µL, an Enzyme Activity Endpoint Assay: Fc of 156 ng/µL, an Enzyme Activity Endpoint Assay: IgG of 0 ng/µL and an Enzyme Activity Endpoint Assay: scIgG of 0 ng/µL.
Protein B9 registered an Enzyme Activity Endpoint Assay: Fab′2 of 592 ng/µL, an Enzyme Activity Endpoint Assay: Fc of 180 ng/µL, an Enzyme Activity Endpoint Assay: IgG of 0 ng/µL and an Enzyme Activity Endpoint Assay: scIgG of 0 ng/µL.
In turn, B10 showed an Enzyme Activity Endpoint Assay: Fab′2 of 38 ng/µL, an Enzyme Activity Endpoint Assay: Fc of 91 ng/µL, an Enzyme Activity Endpoint Assay: IgG of 11 ng/µL and an Enzyme Activity Endpoint Assay: scIgG of 0 ng/µL.
For B11, the Enzyme Activity Endpoint Assay: Fab′2 is 513 ng/µL, the Enzyme Activity Endpoint Assay: Fc was 178 ng/µL, the Enzyme Activity Endpoint Assay: IgG stood at 0 ng/µL and the Enzyme Activity Endpoint Assay: scIgG turned out to be 0 ng/µL.
B12 showed an Enzyme Activity Endpoint Assay: Fab′2 of 44 ng/µL, an Enzyme Activity Endpoint Assay: Fc of 106 ng/µL, an Enzyme Activity Endpoint Assay: IgG of 21 ng/µL and an Enzyme Activity Endpoint Assay: scIgG of 0 ng/µL.
For B13, in that order: 547 ng/µL, 120 ng/µL, 0 ng/µL and 0 ng/µL.
On to B14, for which the Enzyme Activity Endpoint Assay: Fab′2 was 655 ng/µL, the Enzyme Activity Endpoint Assay: Fc was found to be 204 ng/µL, the Enzyme Activity Endpoint Assay: IgG turned out to be 0 ng/µL and the Enzyme Activity Endpoint Assay: scIgG turned out to be 0 ng/µL.
Consider B15, for which the Enzyme Activity Endpoint Assay: Fab′2 is 45 ng/µL, the Enzyme Activity Endpoint Assay: Fc was 89 ng/µL, the Enzyme Activity Endpoint Assay: IgG worked out at 34 ng/µL and the Enzyme Activity Endpoint Assay: scIgG came out at 0 ng/µL.
B16 showed an Enzyme Activity Endpoint Assay: Fab′2 of 489 ng/µL, an Enzyme Activity Endpoint Assay: Fc of 152 ng/µL, an Enzyme Activity Endpoint Assay: IgG of 0 ng/µL and an Enzyme Activity Endpoint Assay: scIgG of 0 ng/µL.

Source of the values: patent publication US20250027068.
